{"source": "IntAct's records for PubMed 19523115", "parents": {"B1": {"name": "Solute carrier family 2, facilitated glucose transporter member 8 (Mus musculus), Q9JIF3 (parent)", "chain": "MSPEDPQETQPLLRPPEARTPRGRRVFLASFAAALGPLSFGFALGYSSPAIPSLRRTAPPALRLGDNAASWFGAVVTLGAAAGGILGGWLLDRAGRKLSLLLCTVPFVTGFAVITAARDVWMLLGGRLLTGLACGVASLVAPVYISEIAYPAVRGLLGSCVQLMVVTGILLAYVAGWVLEWRWLAVLGCVPPTLMLLLMCYMPETPRFLLTQHQYQEAMAALRFLWGSEEGWEEPPVGAEHQGFQLALLRRPGIYKPLIIGISLMVFQQLSGVNAIMFYANSIFEEAKFKDSSLASVTVGIIQVLFTAVAALIMDRAGRRLLLALSGVIMVFSMSAFGTYFKLTQSLPSNSSHVGLVPIAAEPVDVQVGLAWLAVGSMCLFIAGFAVGWGPIPWLLMSEIFPLHVKGVATGICVLTNWFMAFLVTKEFSSVMEMLRPYGAFWLTAAFCALSVLFTLTVVPETKGRTLEQVTAHFEGR"}, "B2": {"name": "Solute carrier family 2, facilitated glucose transporter member 8 (Mus musculus), Q9JIF3 (parent)", "chain": "B1 chain", "partner": "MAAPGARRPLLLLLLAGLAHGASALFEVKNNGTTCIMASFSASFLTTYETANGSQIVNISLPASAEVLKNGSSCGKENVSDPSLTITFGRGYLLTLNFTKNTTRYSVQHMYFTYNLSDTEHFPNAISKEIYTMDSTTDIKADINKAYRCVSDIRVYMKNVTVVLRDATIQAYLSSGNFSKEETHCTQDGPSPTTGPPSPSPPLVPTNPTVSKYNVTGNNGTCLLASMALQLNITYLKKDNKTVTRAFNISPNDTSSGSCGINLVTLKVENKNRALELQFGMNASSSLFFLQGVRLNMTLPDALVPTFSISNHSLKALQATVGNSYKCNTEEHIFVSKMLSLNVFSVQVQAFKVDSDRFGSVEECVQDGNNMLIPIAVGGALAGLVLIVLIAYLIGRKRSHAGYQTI"}}}
{"variants_of": "B1", "details": "with ap1g1_human AP1G1, O43747"}
{"variant": "MSPEDPQETQPALRPPEARTPRGRRVFLASFAAALGPLSFGFALGYSSPAIPSLRRTAPPALRLGDNAASWFGAVVTLGAAAGGILGGWLLDRAGRKLSLLLCTVPFVTGFAVITAARDVWMLLGGRLLTGLACGVASLVAPVYISEIAYPAVRGLLGSCVQLMVVTGILLAYVAGWVLEWRWLAVLGCVPPTLMLLLMCYMPETPRFLLTQHQYQEAMAALRFLWGSEEGWEEPPVGAEHQGFQLALLRRPGIYKPLIIGISLMVFQQLSGVNAIMFYANSIFEEAKFKDSSLASVTVGIIQVLFTAVAALIMDRAGRRLLLALSGVIMVFSMSAFGTYFKLTQSLPSNSSHVGLVPIAAEPVDVQVGLAWLAVGSMCLFIAGFAVGWGPIPWLLMSEIFPLHVKGVATGICVLTNWFMAFLVTKEFSSVMEMLRPYGAFWLTAAFCALSVLFTLTVVPETKGRTLEQVTAHFEGR", "note": "[L12A]", "effect of a mutation on the interaction": "disrupting interaction"}
{"variants_of": "B1", "details": "with ap1g1_mouse Ap1g1, P22892"}
{"variant": "MSPEDPQETQPALRPPEARTPRGRRVFLASFAAALGPLSFGFALGYSSPAIPSLRRTAPPALRLGDNAASWFGAVVTLGAAAGGILGGWLLDRAGRKLSLLLCTVPFVTGFAVITAARDVWMLLGGRLLTGLACGVASLVAPVYISEIAYPAVRGLLGSCVQLMVVTGILLAYVAGWVLEWRWLAVLGCVPPTLMLLLMCYMPETPRFLLTQHQYQEAMAALRFLWGSEEGWEEPPVGAEHQGFQLALLRRPGIYKPLIIGISLMVFQQLSGVNAIMFYANSIFEEAKFKDSSLASVTVGIIQVLFTAVAALIMDRAGRRLLLALSGVIMVFSMSAFGTYFKLTQSLPSNSSHVGLVPIAAEPVDVQVGLAWLAVGSMCLFIAGFAVGWGPIPWLLMSEIFPLHVKGVATGICVLTNWFMAFLVTKEFSSVMEMLRPYGAFWLTAAFCALSVLFTLTVVPETKGRTLEQVTAHFEGR", "note": "[L12A]", "effect of a mutation on the interaction": "disrupting interaction"}
{"variants_of": "B1", "details": "with ap2b1_rat Ap2b1, P62944"}
{"variant": "MSPEDPQETQPALRPPEARTPRGRRVFLASFAAALGPLSFGFALGYSSPAIPSLRRTAPPALRLGDNAASWFGAVVTLGAAAGGILGGWLLDRAGRKLSLLLCTVPFVTGFAVITAARDVWMLLGGRLLTGLACGVASLVAPVYISEIAYPAVRGLLGSCVQLMVVTGILLAYVAGWVLEWRWLAVLGCVPPTLMLLLMCYMPETPRFLLTQHQYQEAMAALRFLWGSEEGWEEPPVGAEHQGFQLALLRRPGIYKPLIIGISLMVFQQLSGVNAIMFYANSIFEEAKFKDSSLASVTVGIIQVLFTAVAALIMDRAGRRLLLALSGVIMVFSMSAFGTYFKLTQSLPSNSSHVGLVPIAAEPVDVQVGLAWLAVGSMCLFIAGFAVGWGPIPWLLMSEIFPLHVKGVATGICVLTNWFMAFLVTKEFSSVMEMLRPYGAFWLTAAFCALSVLFTLTVVPETKGRTLEQVTAHFEGR", "note": "[L12A]", "effect of a mutation on the interaction": "decreasing interaction"}
{"variants_of": "B1", "details": "with ap2b1_mouse Ap2b1, Q9DBG3"}
{"variant": "MSPEDPQETQPLARPPEARTPRGRRVFLASFAAALGPLSFGFALGYSSPAIPSLRRTAPPALRLGDNAASWFGAVVTLGAAAGGILGGWLLDRAGRKLSLLLCTVPFVTGFAVITAARDVWMLLGGRLLTGLACGVASLVAPVYISEIAYPAVRGLLGSCVQLMVVTGILLAYVAGWVLEWRWLAVLGCVPPTLMLLLMCYMPETPRFLLTQHQYQEAMAALRFLWGSEEGWEEPPVGAEHQGFQLALLRRPGIYKPLIIGISLMVFQQLSGVNAIMFYANSIFEEAKFKDSSLASVTVGIIQVLFTAVAALIMDRAGRRLLLALSGVIMVFSMSAFGTYFKLTQSLPSNSSHVGLVPIAAEPVDVQVGLAWLAVGSMCLFIAGFAVGWGPIPWLLMSEIFPLHVKGVATGICVLTNWFMAFLVTKEFSSVMEMLRPYGAFWLTAAFCALSVLFTLTVVPETKGRTLEQVTAHFEGR", "note": "[L13A]", "effect of a mutation on the interaction": "increasing interaction"}
{"variants_of": "B2", "details": "with lamp1_mouse Lamp1, P11438"}
{"variant": "MSPEDPQETQPALRPPEARTPRGRRVFLASFAAALGPLSFGFALGYSSPAIPSLRRTAPPALRLGDNAASWFGAVVTLGAAAGGILGGWLLDRAGRKLSLLLCTVPFVTGFAVITAARDVWMLLGGRLLTGLACGVASLVAPVYISEIAYPAVRGLLGSCVQLMVVTGILLAYVAGWVLEWRWLAVLGCVPPTLMLLLMCYMPETPRFLLTQHQYQEAMAALRFLWGSEEGWEEPPVGAEHQGFQLALLRRPGIYKPLIIGISLMVFQQLSGVNAIMFYANSIFEEAKFKDSSLASVTVGIIQVLFTAVAALIMDRAGRRLLLALSGVIMVFSMSAFGTYFKLTQSLPSNSSHVGLVPIAAEPVDVQVGLAWLAVGSMCLFIAGFAVGWGPIPWLLMSEIFPLHVKGVATGICVLTNWFMAFLVTKEFSSVMEMLRPYGAFWLTAAFCALSVLFTLTVVPETKGRTLEQVTAHFEGR", "note": "[L12A]", "effect of a mutation on the interaction": "disrupting interaction"}
